Measurements: patent publication US20230227572A1 (HEFEI TG IMMUNOPHARMA, published 2023)
Substitutions are numbered along the chain they refer to. In names and notes the source's numbering stands. Values belong to the binder of their own block, whether it stands above or below them.

How the values were obtained:
[1] = biological target: T1, human PVRIG protein on the cell membrane surface (human, UniProt Q6DKI7 41-326); assay: flow cytometry on 293T-human PVRIG cells, AF647 mouse anti-human IgG-Fc, percent positive cells
T1 construct: Also used here for the natural PVRIG on NKG cells and human lymphocytes; also called 293T-human PVRIG cell line; PVRIG on NKG cell line
T1 sequence: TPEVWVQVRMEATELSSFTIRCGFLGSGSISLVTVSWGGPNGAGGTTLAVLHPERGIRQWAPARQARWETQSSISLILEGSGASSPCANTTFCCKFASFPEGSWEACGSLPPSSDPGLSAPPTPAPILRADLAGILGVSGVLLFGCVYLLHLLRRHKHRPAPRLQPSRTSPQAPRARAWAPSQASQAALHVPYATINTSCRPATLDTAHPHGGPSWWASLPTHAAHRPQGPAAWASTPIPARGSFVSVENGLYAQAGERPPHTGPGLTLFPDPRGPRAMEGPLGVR
Experimental: The activity of the humanized antibodies in binding to human PVRIG was evaluated by flow cytometry in the experiment.
The 293T-human PVRIG cell line was harvested, and washed and resuspended with 1×PBS to count the cells. Then 2×10^5 cells were placed into each 1.5 ml Ep tube, the respective humanized antibody was added at different concentrations, the mixture was incubated at 4° C. for 30 min, then washed with 1×PBS, and centrifuged at 3,500 rpm for 5 min to harvest the cells. The cell pellet was resuspended in 100 μl of 1×PBS, a AF647-labeled mouse anti-human IgG-Fc antibody (available from Biolegend) was added, the mixture was incubated at 4° C. for 30 min in the dark, followed by washing twice with 1×PBS and harvesting the cells by centrifugation at 3,500 rpm for 5 min. The cell pellet was resuspended with 200 μl of 1×PBS and measured using a flow cytometer (BD LSR II), and the analysis statistical results were shown in FIG. 16. It can be seen that all the humanized antibodies were ablet to specifically bind to the human PVRIG protein on the cell membrane surface.

[2] = biological target: T2, recombinant human PVRIG-human IgG1 Fc fusion protein (human); assay: SPR (Biacore), human PVRIG-human IgG1 Fc on chip, antibody in flow, 1:1 model
T2 construct: no linker is told; also called human PVRIG-Fc fusion protein
Experimental: The binding kinetics and dissociation equilibrium constant (KD) of the antibodies of the present disclosure to human PVRIG were determined using the surface plasmon resonance (Biacore) assay. Briefly, a CMS chip was coated with human PVRIG-human IgG1 Fc fusion protein, and after being blocked, antibody solutions of different concentrations passed through the CMS chip at a fixed flow rate and bound to antigen for 2 min, followed by transfer to dissociation buffer for 6 min for determination of the dissociation rate. The kinetics were analyzed using a 1:1 binding model.

[3] = biological target: T2, recombinant human PVRIG-human IgG1 Fc …; assay: ELISA, plate coated with human PVRIG-human IgG1 Fc at 1.0 µg/ml, HRP goat anti-mouse IgG, OD450
Experimental: The activity of the murine antibodies from different clones in binding to the human PVRIG-Fc fusion protein was evaluated by ELISA. The experimental procedure was as follows:
The recombinant human PVRIG-human IgG1 Fc fusion protein was diluted to 1.0 μg/ml in 1×PBS (phosphate buffer), the dilution was plated onto a 96-well ELISA plate overnight at 4° C. by 100 μl/well, the plate was washed 3 times with PBST (0.05% Tween20-PBS) and blocked with 1% BSA, followed by incubation at 37° C. for 2 h. The plate was washed 3 times with PBST, and murine antibodies (Antibody 1, Antibody 2, Antibody 3, or Antibody 4) diluted in multiple ratios were respectively added to set 8 concentrations, and the mixture was incubated at 37° C. for 1 h using mouse IgG1 (available from Biolegend) as a negative control at 100 μl/well. The plate was washed 3 times with PBST, and 100 μl of horseradish peroxidase (HRP)-labeled goat anti-mouse IgG antibody (available from BOSTER, 1:10,000 dilution) was added to each well, and the mixture was incubated at 37° C. for 1 h. After washing, 100 μl of TMB substrate solution was added to each well for developing for 10 to 15 min in the dark, 100 μl of stop solution (2M H2SO4) was added to each well, the solution was measured with a microplate reader immediately after the reaction stopped, and the absorbance at 450 nm (OD450) was read.
Target sequence in this assay (chain, as listed by the source limits assumed): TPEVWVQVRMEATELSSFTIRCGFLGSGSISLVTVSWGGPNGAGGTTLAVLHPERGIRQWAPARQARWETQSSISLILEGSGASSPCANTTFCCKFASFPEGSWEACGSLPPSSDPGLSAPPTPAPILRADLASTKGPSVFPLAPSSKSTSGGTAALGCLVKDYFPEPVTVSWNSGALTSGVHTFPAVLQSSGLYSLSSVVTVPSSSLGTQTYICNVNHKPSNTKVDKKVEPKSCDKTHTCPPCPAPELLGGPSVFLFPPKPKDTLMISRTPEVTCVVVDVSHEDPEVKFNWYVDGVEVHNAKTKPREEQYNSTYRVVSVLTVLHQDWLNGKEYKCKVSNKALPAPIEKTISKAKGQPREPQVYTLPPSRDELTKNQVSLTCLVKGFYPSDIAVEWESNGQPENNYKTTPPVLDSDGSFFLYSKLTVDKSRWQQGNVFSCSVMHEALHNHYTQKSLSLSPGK

[4] = biological target: T1, human PVRIG protein on the cell …; assay: flow cytometry on 293T-human PVRIG cells, AF647 goat anti-mouse IgG, percent positive cells
Experimental: The activity of murine antibodies from different clones in binding to human PVRIG protein on the cell membrane surface was evaluated by flow cytometry. The experimental procedure was as follows:
The 293T-human PVRIG cell line was harvested, washed with 1×PBS and resuspended, the cells were counted. Then […] were placed into each 1.5 ml Ep tube, the respective murine antibody (Antibody 1, Antibody 2, Antibody 3, or Antibody 4) was added at different concentrations, the mixture was incubated at 4° C. for 30 min, then washed with 1×PBS, and centrifuged at 3,500 rpm for 5 min to harvest the cells. The cell pellet was resuspended in 100 μl of 1×PBS, a AF647-labeled goat anti-mouse IgG antibody (available from Biolegend) was added, the mixture was incubated at 4° C. for 30 min in the dark, followed by washing twice with 1×PBS and harvesting the cells by centrifugation at 3,500 rpm for 5 min. The cell pellet was resuspended with 200 μl of 1×PBS and measured using a flow cytometer (BD LSR II).

B1: Antibody 4-hu4 (antibody, human IgG4 S228P, kappa, V domains shown)
VH: EVQLVQSGAEVKKPGSSVKVSCKASGGTFSSFSIEWVRQAPGQGLEWIGEILPGSNSTNYNEKFKGRVTFTADESTSTAYMELSSLRSEDTAVYYCSSYWFAYWGQGTLVTVSS
VL: DIVMTQSPDSLAVSLGERATINCKSSQSLLNSGNQKNYLAWYQQKPGQPPKLLIYGASTRESGVPDRFSGSGSGTDFTLTISSLQAEDVAVYYCQNAHSYPPTFGQGTKLEIKR
notes: Humanized Antibody 4; heavy chain IgG4 with S228P already in the entry
- EC50 (read off the curve) [1]: ~0.02 µg/mL
- Kd [2]: 0.236 nM
- koff [2]: 4.44e-05 s⁻¹
- kon [2]: 188000 M⁻¹ s⁻¹

B6: Antibody 4-hu11 (antibody, human IgG4 S228P, kappa, V domains shown)
VH: B1 VH with G27Y, R67K, V68A, E74T, S77N
VL: B1 VL
notes: as for B1
- EC50 (read off the curve) [1]: ~0.003 µg/mL
- Kd [2]: ≤ 0.00422 nM
- koff [2]: ≤ 1e-06 s⁻¹
- kon [2]: 237000 M⁻¹ s⁻¹

B7: Antibody 4-hu1 (antibody, human IgG4 S228P, kappa, V domains shown)
VH: B1 VH with I48M, F70I, S97A, S98R
VL: B1 VL
notes: as for B1
- Kd [2]: 0.118 nM
- koff [2]: 2.32e-05 s⁻¹
- kon [2]: 197000 M⁻¹ s⁻¹

B10: Antibody 4-hu3 (antibody, human IgG4 S228P, kappa, V domains shown)
VH: B1 VH with I48M
VL: B1 VL
notes: as for B1
- Kd [2]: 0.0916 nM
- koff [2]: 1.95e-05 s⁻¹
- kon [2]: 212000 M⁻¹ s⁻¹

B12: Antibody 2 (antibody, V domains shown)
VH: QVQLQQSGAELTKPGASVKISCKATGYTFSTFAIDWIKQRPGHGLAWIGEILPGGNNTNYNEKFKGKATFTADTSSNTAYMHLSSLTSEDSAVYYCSTYWFAYWGQGTLVTVSA
VL: DIVMTQSPSSLSVSAGEKVTMSCKSSQSLLNSGNQKNYLAWYQQKPGQPPKLLMYGASTRESGVPDRFTGSGSGTDFTLTISSVQAEDLAVYYCQNAHSYPPAFGAGTKLELK
notes: Murine monoclonal antibody from hybridoma ascites; also called murine antibody Antibody 2
- EC50 (read off the curve) [3]: ~0.03 µg/mL
- Kd [2]: 1.51 nM
- koff [2]: 0.000137 s⁻¹
- kon [2]: 90500 M⁻¹ s⁻¹
- EC50 (read off the curve) [4]: ~0.03 µg/mL

B13: Antibody 1 (antibody, V domains shown)
VH: B12 VH with T12M, H43P, G55I
VL: B12 VL with S22T, A103T
notes: Murine monoclonal antibody from hybridoma ascites, purified on Protein G; also called murine antibody Antibody 1
- EC50 (read off the curve) [3]: ~0.02 µg/mL
- Kd [2]: 0.316 nM
- koff [2]: 4.19e-05 s⁻¹
- kon [2]: 133000 M⁻¹ s⁻¹
- EC50 (read off the curve) [4]: ~0.02 µg/mL

Second part, the binder after the results:

- Kd [2]: ≤ 0.00361 nM
- koff [2]: ≤ 1e-06 s⁻¹
- kon [2]: 277000 M⁻¹ s⁻¹
B2: Antibody 4-hu7 (antibody, human IgG4 S228P, kappa, V domains shown)
VH: B1 VH with G27Y, I48M, F70I
VL: B1 VL
notes: as for B1

- Kd [2]: 0.015 nM
- koff [2]: 3.54e-06 s⁻¹
- kon [2]: 236000 M⁻¹ s⁻¹
B3: Antibody 4-hu5 (antibody, human IgG4 S228P, kappa, V domains shown)
VH: B1 VH with E74T, S77N
VL: B1 VL
notes: as for B1

- EC50 (read off the curve) [1]: ~0.001 µg/mL
- Kd [2]: ≤ 0.00505 nM
- koff [2]: ≤ 1e-06 s⁻¹
- kon [2]: 198000 M⁻¹ s⁻¹
B4: Antibody 4-hu8 (antibody, human IgG4 S228P, kappa, V domains shown)
VH: B1 VH with G27Y, I48M
VL: B1 VL
notes: Humanized Antibody 4; heavy chain IgG4 with S228P already in the entry; also called Antibody 4-hub [sic]

- Kd [2]: ≤ 0.00356 nM
- koff [2]: ≤ 1e-06 s⁻¹
- kon [2]: 281000 M⁻¹ s⁻¹
B5: Antibody 4-hu6 (antibody, human IgG4 S228P, kappa, V domains shown)
VH: B1 VH with R67K, V68A, E74T, S77N
VL: B1 VL
notes: as for B4

- Kd [2]: 0.239 nM
- koff [2]: 6.38e-05 s⁻¹
- kon [2]: 266000 M⁻¹ s⁻¹
B8: Antibody 4-hu2 (antibody, human IgG4 S228P, kappa, V domains shown)
VH: B1 VH with I48M, F70I
VL: B1 VL
notes: as for B1

- EC50 (read off the curve) [1]: ~0.0005 µg/mL
- Kd [2]: ≤ 0.004 nM
- koff [2]: ≤ 1e-06 s⁻¹
- kon [2]: 250000 M⁻¹ s⁻¹
B9: Antibody 4-hu10 (antibody, human IgG4 S228P, kappa, V domains shown)
VH: B1 VH with G27Y, E74T, S77N
VL: B1 VL
notes: as for B1

- EC50 (read off the curve) [3]: ~0.02 µg/mL
- Kd [2]: 0.99 nM
- koff [2]: 8.82e-05 s⁻¹
- kon [2]: 89100 M⁻¹ s⁻¹
- EC50 (read off the curve) [4]: ~0.1 µg/mL
B11: Antibody 3 (antibody, V domains shown)
VH: EVQLQQSGPELVKPGASMKISCKASGYSFTAYTMNWVKQSHGKNLEWIGLINPYNGGTSYNQKFKGKATLTGDKSSSTAYMELLSVTSEDSAVYFCAREGNYYGSRGDFDYWGQGTTLTVSS
VL: DILLTQSPAILSVSPGERVSFSCRASQTIVTNILWYQQRTNGSPRLLIRYASESISGIPSRFSGSGSGTDFTLSINSVESEDIAHYYCQQSHSWPFTFGSGTKLEIK
notes: Murine monoclonal antibody from hybridoma ascites; also called murine antibody Antibody 3
